{"source": "patent US7592168B2", "about": "“Cephalosporin C acylase mutant and method for preparing 7-ACA using same” (Sandoz AG, priority 2003, dated 2009)", "proteins": {"B1": {"name": "Pseudomonas sp. SE83 CPC acylase AcyII, wild type, SEQ ID NO: 2 (alpha-subunit SEQ ID NO: 4, beta-subunit SEQ ID NO: 5) (Pseudomonas sp. SE83) (protein)", "chain 1": "TMAAKTDREALQAALPPLSGSLSIPGLSAPVRVQRDGWGIPHIKASGEADAYRALGFVHAQDRLFQMELTRRKALGRAAEWLGAEAAEADILVRRLGMEKVCRRDFEALGAEAKDMLRAYVAGVNAFLASGAPLPIEYGLLGAEPEPWEPWHSIAVMRRLGLLMGSVWFKLWRMLALPVVGAANALKLRYDDGGQDLLCIPPGVEAERLEADLAALRPAVDALLKAMGG", "chain 2": "SNNWAVAPGRTATGRPILAGDPHRVFEIPGMYAQHHLACDRFDMIGLTVPGVPGFPHFAHNGKVAYCVTHAFMDIHDLYLEQFAEDGRTARFGNEFEPVAWRRDRIAVRGGADREFDIVETRHGPVIAGDPLEGAALTLRSVQFAETDLSFDCLTRMPGASTVAQLYDATRGWGLIDHNLVAGDVAGSIGHLVRARVPSRPRENGWLPVPGWSGEHEWRGWIPHEAMPRVIDPPGGLIVTANNRVVADDHPDYLCTDCHPPYRAERIMERLVASPAFAVDDAAAIHADTLSPHVGLLRARLEALGIQGSLPAEELRQTLIAWDGRMDAGSQAASAYNAFRRALTRLVTARSGLEQAIAHPFAAVPPGVSPQGQVWWAVPTLLRNDDAGMLKGWSWDEALSEALSVATQNLTGRGWGEEHRPRFTHPLSAQFPAWAALLNPVSRPIGGDGDTVLANGLVPSAGPEATYGALSRYVFDVGNWDNSRWVVFHGASGHPASPHYADQNAPWSDCAMVPMLYSWDRIAAEAVTSQELVPA", "notes": "made in house; host or cells: E. coli MC1061"}}, "substrate": "[H][C@]12SCC(COC(C)=O)=C(C(=O)O)N1C(=O)[C@H]2NC(=O)CCC[C@@H](N)C(=O)O", "assay": "CPC hydrolysis kinetics (Lineweaver-Burk plot), wild-type CPC acylase AcyII", "assay_type": "biochemical, Pseudomonas sp. SE83", "conditions": "other: substrate CPC, purified enzyme, 0.1 M Tris-HCl pH 8.0, 37° C.", "procedure": "The enzyme activity of CPC acylase mutant to CPC was measured according to the method described by Park et al. with minor modifications as follows (Park, et al., Kor. J. Appl. Microbiol. Biotechnol. 23: 559-564, 1995). A substrate solution was prepared by dissolving CPC (purity 74.2%; CJ Corp., Korea) in 0.1 M Tris-HCl buffer solution (pH 8.0) at a concentration of 20 mg/ml and adjusting pH to 8 with 1 N NaOH. 20 μl of the CPC solution was mixed with 20 μl of the crude enzyme solution prepared above and the reaction mixture was incubated at 37° C. for 5 min. After the reaction, the mixture (200 μl) of 50 mM NaOH and 20% glacial acetic acid (1:2) was added thereto to stop the reaction. 200 μl of the supernatant recovered from the reaction mixture by centrifugation was mixed with 40 μl of 0.5% (w/v) PDAB (p-dimethylaminobenzaldehyde; Sigma, USA) dissolved in a methanol and the reaction mixture was incubated at 37° C. for 10 min. After the reaction, the absorbance of reaction mixture was measured at 415 nm and quantified by comparing with a calibration curve of standard material. At this time, 1 unit has been defined as the amount of enzyme capable to produce 1 μmole of 7-ACA from CPC per minute. Meanwhile, the specific activity of CPC acylase mutant for CPC was determined by measuring the amount of protein remaining in the enzyme solution according to the method described by Bradford (Bradford, M., Anal. Biochem. 72: 248-254, 1976) and representing it as an active unit corresponding to 1 mg of protein. The reactivity of CPC acylase mutant to CPC was determined by the following steps of adding the same amount of protein to a reaction mixture, performing an enzyme reaction for a fixed time, measuring the amount of 7-ACA produced in the reaction mixture, and representing it as a relative value. The end-product inhibition by 7-ACA was determined by adding a protein corresponding to the same active unit to a reaction mixture, performing an enzyme reaction for a fixed time; measuring the amount of 7-ACA produced in the reaction mixture, and representing it as a relative value. […]", "data": [{"protein": "B1", "values": [{"measurement": "Km", "result": 50, "unit": "mM"}, {"measurement": "kcat", "result": 0.9, "unit": "s⁻¹"}, {"measurement": "kcat/Km", "result": 20, "unit": "M⁻¹ s⁻¹"}]}]}
